{"source": "patent US20050283857A1", "key": {"[1]": {"target": "Cad11-12 truncated Bt-R1a cadherin expressed in S2 cells (Manduca sexta)", "test": "125I-Cry1Ab toxin binding saturation assay on S2 cells; dissociation constant (Kcom)"}, "[2]": {"target": "Cad12 truncated Bt-R1a cadherin expressed in S2 cells (Manduca sexta)", "test": "125I-Cry1Ab toxin binding saturation assay on S2 cells; dissociation constant (Kcom)"}, "[3]": {"target": "Manduca sexta cadherin Bt-R1a, full length, expressed in Drosophila S2 cells (Manduca sexta)", "test": "125I-Cry1Ab toxin binding saturation assay on S2 cells; dissociation constant (Kcom)"}, "[4]": {"target": "Cad11-12 truncated Bt-R1a cadherin expressed in S2 cells (Manduca sexta)", "test": "125I-Cry1Ab toxin binding saturation assay on S2 cells; concentration of receptors"}, "[5]": {"target": "Cad12 truncated Bt-R1a cadherin expressed in S2 cells (Manduca sexta)", "test": "125I-Cry1Ab toxin binding saturation assay on S2 cells; concentration of receptors"}, "[6]": {"target": "Cad7-12 truncated Bt-R1a cadherin expressed in S2 cells (Manduca sexta)", "test": "125I-Cry1Ab toxin binding saturation assay on S2 cells; concentration of receptors"}, "[7]": {"target": "Manduca sexta cadherin Bt-R1a, full length, expressed in Drosophila S2 cells (Manduca sexta)", "test": "125I-Cry1Ab toxin binding saturation assay on S2 cells; concentration of receptors"}, "[8]": {"target": "Cad11-12 truncated Bt-R1a cadherin expressed in S2 cells (Manduca sexta)", "test": "125I-Cry1Ab saturation binding on S2 cell suspensions"}}, "note": "pKd: −log10 of the molar value."}
{"substance": "Cry1Ab toxin (ligand)", "values": [{"measurement": "pKd", "setting": "[1]", "result": 8.45}, {"measurement": "pKd", "setting": "[2]", "result": 8.54}, {"measurement": "pKd", "setting": "[3]", "result": 8.45}, {"measurement": "Bmax (fmoles/mg protein)", "setting": "[4]", "result": 3320}, {"measurement": "Bmax (fmoles/mg protein)", "setting": "[5]", "result": 1410}, {"measurement": "Bmax (fmoles/mg protein)", "setting": "[6]", "result": 506}, {"measurement": "Bmax (fmoles/mg protein)", "setting": "[7]", "result": 625}, {"measurement": "fold higher concentration of binding sites than Cad12", "setting": "[8]", "result": 3, "unit": "fold"}]}
